The values that follow come from patent publication US20200283539A1.

The experiment addresses CD33 on HL60 leukemia cells (human) (UniProt P20138). Put plainly: cell-based or functional assay.

Chain of CD33 on HL60 leukemia cells (human) (P20138 18-364 limits assumed): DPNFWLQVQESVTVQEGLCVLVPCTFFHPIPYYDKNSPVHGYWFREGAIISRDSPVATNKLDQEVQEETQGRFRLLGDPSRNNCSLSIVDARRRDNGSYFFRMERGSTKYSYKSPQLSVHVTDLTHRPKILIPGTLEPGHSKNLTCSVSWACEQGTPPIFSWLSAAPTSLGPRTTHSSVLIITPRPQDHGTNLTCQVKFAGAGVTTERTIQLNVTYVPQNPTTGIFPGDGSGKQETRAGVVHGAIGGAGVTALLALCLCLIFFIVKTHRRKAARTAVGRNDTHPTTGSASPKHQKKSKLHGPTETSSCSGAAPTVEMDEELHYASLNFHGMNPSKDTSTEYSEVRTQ

On to “Lintuzumab conjugated with Actinium-225 (antibody)”, for which the LD50 (dose at which 50% of the cells were killed), HL60 cell suspension was 8 pCi/mL.
